Reference: patent US20050250692A1

Legend:
[1] = biological target: acidic pH binding sites of MEF cells; test: competition with 125I-α2M* binding to MEF cells at pH 5.5
[2] = biological target: acidic pH binding sites of PEA-13 cells; test: competition with 125I-α2M* binding to PEA-13 cells at acidic pH
[3] = biological target: acidic pH binding sites of Mv1Lu cells; test: Scatchard plot analysis of 125I-α2M* binding to Mv1Lu cells at pH 5
[4] = biological target: acidic pH binding sites of Mv1Lu cells; test: concentration dependence of 125I-α2M* binding to Mv1Lu cells at pH 5

IC50 [1]: 50 nM | IC50 [2]: 120 nM | Kd [3]: 51 nM | sites/cell [3]: 1e+06 sites/cell | saturating concentration [4]: 120 nM
B1: α2M activated by methylamine (α2M*) (ligand, human, UniProt P01023 24-1474, looked up)
chain: SVSGKPQYMVLVPSLLHTETTEKGCVLLSYLNETVTVSASLESVRGNRSLFTDLEAENDVLHCVAFAVPKSSSNEEVMFLTVQVKGPTQEFKKRTTVMVKNEDSLVFVQTDKSIYKPGQTVKFRVVSMDENFHPLNELIPLVYIQDPKGNRIAQWQSFQLEGGLKQFSFPLSSEPFQGSYKVVVQKKSGGRTEHPFTVEEFVLPKFEVQVTVPKIITILEEEMNVSVCGLYTYGKPVPGHVTVSICRKYSDASDCHGEDSQAFCEKFSGQLNSHGCFYQQVKTKVFQLKRKEYEMKLHTEAQIQEEGTVVELTGRQSSEITRTITKLSFVKVDSHFRQGIPFFGQVRLVDGKGVPIPNKVIFIRGNEANYYSNATTDEHGLVQFSINTTNVMGTSLTVRVNYKDRSPCYGYQWVSEEHEEAHHTAYLVFSPSKSFVHLEPMSHELPCGHTQTVQAHYILNGGTLLGLKKLSFYYLIMAKGGIVRTGTHGLLVKQEDMKGHFSISIPVKSDIAPVARLLIYAVLPTGDVIGDSAKYDVENCLANKVDLSFSPSQSLPASHAHLRVTAAPQSVCALRAVDQSVLLMKPDAELSASSVYNLLPEKDLTGFPGPLNDQDNEDCINRHNVYINGITYTPVSSTNEKDMYSFLEDMGLKAFTNSKIRKPKMCPQLQQYEMHGPEGLRVGFYESDVMGRGHARLVHVEEPHTETVRKYFPETWIWDLVVVNSAGVAEVGVTVPDTITEWKAGAFCLSEDAGLGISSTASLRAFQPFFVELTMPYSVIRGEAFTLKATVLNYLPKCIRVSVQLEASPAFLAVPVEKEQAPHCICANGRQTVSWAVTPKSLGNVNFTVSAEALESQELCGTEVPSVPEHGRKDTVIKPLLVEPEGLEKETTFNSLLCPSGGEVSEELSLKLPPNVVEESARASVSVLGDILGSAMQNTQNLLQMPYGCGEQNMVLFAPNIYVLDYLNETQQLTPEIKSKAIGYLNTGYQRQLNYKHYDGSYSTFGERYGRNQGNTWLTAFVLKTFAQARAYIFIDEAHITQALIWLSQRQKDNGCFRSSGSLLNNAIKGGVEDEVTLSAYITIALLEIPLTVTHPVVRNALFCLESAWKTAQEGDHGSHVYTKALLAYAFALAGNQDKRKEVLKSLNEEAVKKDNSVHWERPQKPKAPVGHFYEPQAPSAEVEMTSYVLLAYLTAQPAPTSEDLTSATNIVKWITKQQNAQGGFSSTQDTVVALHALSKYGAATFTRTGKAAQVTIQSSGTFSSKFQVDNNNRLLLQQVSLPELPGEYSMKVTGEGCVYLQTSLKYNILPEKEEFPFALGVQTLPQTCDEPKAHTSFQISLSVSYTGSRSASNMAIVDVKMVSGFIPLKPTVKMLERSNHVSRTEVSSNHVLIYLDKVSNQTLSLFFTVLQDVPVRDLKPAIVKVYDYYETDEFAIAEYNAPCSKDLGNA
modifications: activated by methylamine; 125I-labelled where used as tracer
